Measurements as given in paper PMC9941103.
“And” between values parts separate entries of the source, which are not always exact repeats. Identical values can stand only once.

How the values were obtained:
[1] = biological target: SNAP25(CtoS), cysteine-free variant of SNAP25 (UniProt P60881); assay: cross-linking; 10 µM of one protein alone, 0-1.5 mM BS3, 1 h at 25 °C; gel electrophoresis, Coomassie staining and western blot
[2] = biological target: SNAP25(CtoS), cysteine-free variant of SNAP25 (UniProt P60881); assay: native MS; 10 µM of one protein alone, 200 mM ammonium acetate
[3] = biological target: Synaptobrevin-2 variant lacking the transmembrane helix, Syb(1-96) (UniProt P63045); assay: native MS; SNAP25 and Synaptobrevin-2 mixed 1:1; 200 mM ammonium acetate; settings: scale: SNAP25 per Synaptobrevin-2
[4] = biological target: Synaptobrevin-2 variant lacking the transmembrane helix, Syb(1-96) (UniProt P63045); assay: native MS; SNAP25 and Synaptobrevin-2 mixed 1:2 and 2:1; settings: scale: SNAP25 per Synaptobrevin-2
[5] = biological target: pre-assembled binary SNAP25:Synaptobrevin-2 complex (2:1) (UniProt P60881); assay: native MS; SNAP25 and Synaptobrevin-2 mixed 1:1; 200 mM ammonium acetate
[6] = biological target: T1, full-length Complexin-1, P63041; assay: native MS; 10 µM of one protein alone, 200 mM ammonium acetate; settings: remark: other sources report otherwise
T1 chain: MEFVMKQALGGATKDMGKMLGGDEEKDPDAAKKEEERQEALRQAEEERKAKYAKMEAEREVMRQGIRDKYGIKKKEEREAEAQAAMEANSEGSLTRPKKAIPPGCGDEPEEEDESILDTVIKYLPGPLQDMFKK

Chain of UniProt P63045 (P63045 1-96, change not shown): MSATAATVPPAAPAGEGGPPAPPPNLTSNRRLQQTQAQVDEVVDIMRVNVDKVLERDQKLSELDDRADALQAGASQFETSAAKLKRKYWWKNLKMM

SNAP25(CtoS), cysteine-free variant of SNAP25 (from UniProt P60881 1-206)
stoichiometry N [1]: < 5

SNAP25(CtoS), cysteine-free variant of SNAP25 (from UniProt P60881 1-206) (natural protein)
stoichiometry N [2]: 2 and 3
stoichiometry N [3]: 2
stoichiometry N [4]: 2

pre-assembled binary SNAP25:Synaptobrevin-2 complex (2:1) (from UniProt P60881 1-206; P63045 1-96)
stoichiometry N [5]: 2

B1: full-length Complexin-1, P63041 1-134 (natural protein)
chain: T1 chain
stoichiometry N [6]: 2 and 3
